Data reported in US20120093787A1.

Experiments:
[1] = biological target: wild-type CXCR4 isoform B (X4b-WT), expressed on CXCR4-/- B4 SupT1 cells by lentiviral transduction (UniProt P61073); test: flow cytometry on X4b WT B4 SupT1 transfectants, PE goat anti-mIgG detection
[2] = biological target: C34-CXCR4 isoform B fusion protein (C34-X4b), expressed on CXCR4-/- B4 SupT1 cells by lentiviral transduction (Pan troglodytes (Chimpanzee)) (UniProt P61072); test: flow cytometry on C34-X4b B4 SupT1 transfectants, PE goat anti-mIgG detection
Chain of UniProt P61072 (P61072 1-352, tags or fused parts left off): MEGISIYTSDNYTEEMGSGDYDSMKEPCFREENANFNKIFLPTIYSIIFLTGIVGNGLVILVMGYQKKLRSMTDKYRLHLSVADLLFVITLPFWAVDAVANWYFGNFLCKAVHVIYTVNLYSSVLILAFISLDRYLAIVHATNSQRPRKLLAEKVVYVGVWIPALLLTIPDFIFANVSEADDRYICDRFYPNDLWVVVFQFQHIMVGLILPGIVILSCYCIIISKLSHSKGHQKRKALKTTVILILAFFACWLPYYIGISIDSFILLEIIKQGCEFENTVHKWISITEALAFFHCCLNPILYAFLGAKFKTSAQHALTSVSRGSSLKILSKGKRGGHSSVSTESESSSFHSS

Chain of UniProt P61073 (P61073 whole entry, the tested form may be a part, canonical isoform): as the sequence (P61072 1-352, tags or fused parts left off) above

isotype control mIgG1 (antibody) showed a positively stained cells (%) [1] of 0% and a positively stained cells (%) [2] of 0%.
In the case of “anti-CXCR4 monoclonal antibody 12G5 (BD Biosciences)”, the MFI [1] is reported as 214 MFI, the positively stained cells (%) [1] is reported as 95.8% and the MFI [2] is reported as 253 MFI. It also gave a positively stained cells (%) [2] of 96.6%.
Substance isotype control mIgG2a (antibody) has a positively stained cells (%) [1] of 0.98% and a positively stained cells (%) [2] of 0.39%.
